Experimental data: patent publication US8722052B2, “Vaccinia virus protein A46 peptide and use thereof” (priority 2008, dated 2014)

Biological target: T1, TLR8 (Homo sapiens, UniProt Q9NR97)
T1 construct: expressed in transfected cells
T1 sequence (Q9NR97 27-1041): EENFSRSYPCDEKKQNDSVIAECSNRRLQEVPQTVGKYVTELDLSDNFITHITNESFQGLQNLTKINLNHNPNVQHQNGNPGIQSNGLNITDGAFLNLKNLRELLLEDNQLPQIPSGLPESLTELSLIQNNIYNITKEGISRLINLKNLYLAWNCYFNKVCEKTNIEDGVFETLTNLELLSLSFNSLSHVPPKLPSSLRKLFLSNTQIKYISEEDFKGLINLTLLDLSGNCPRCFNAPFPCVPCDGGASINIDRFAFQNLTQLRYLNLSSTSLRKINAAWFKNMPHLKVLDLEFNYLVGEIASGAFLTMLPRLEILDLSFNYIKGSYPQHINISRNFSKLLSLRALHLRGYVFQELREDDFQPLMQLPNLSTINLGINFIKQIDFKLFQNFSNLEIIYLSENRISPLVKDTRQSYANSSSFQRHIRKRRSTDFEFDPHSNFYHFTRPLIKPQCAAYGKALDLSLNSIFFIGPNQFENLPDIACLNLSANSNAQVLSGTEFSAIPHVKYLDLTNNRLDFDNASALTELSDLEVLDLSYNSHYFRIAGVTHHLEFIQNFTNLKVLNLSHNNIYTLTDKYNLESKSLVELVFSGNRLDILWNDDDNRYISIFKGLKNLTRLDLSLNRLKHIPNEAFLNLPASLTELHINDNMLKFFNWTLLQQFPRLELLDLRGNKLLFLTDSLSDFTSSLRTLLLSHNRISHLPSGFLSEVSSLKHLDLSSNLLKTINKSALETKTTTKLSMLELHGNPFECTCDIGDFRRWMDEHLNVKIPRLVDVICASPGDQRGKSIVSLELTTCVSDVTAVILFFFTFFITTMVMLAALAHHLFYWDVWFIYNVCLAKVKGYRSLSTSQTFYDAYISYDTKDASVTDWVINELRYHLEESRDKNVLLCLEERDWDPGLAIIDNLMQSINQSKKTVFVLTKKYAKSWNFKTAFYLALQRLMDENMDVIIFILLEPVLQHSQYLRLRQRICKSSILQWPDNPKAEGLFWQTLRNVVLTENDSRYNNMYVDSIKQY
Test: CL075-induced NFκB reporter assay in HEK293_TLR8 cells
Assay type: cell-based
Details: peptide 1, 5 or 25 μM, 2.5 μg/ml CL075, 6 h
Protocol: FIG. 12 is a bar chart showing the effect of A467 and A464 on TLR8-induced NFκB activation in HEK293 cells. HEK293_TLR8 cells were transfected with 60 ng NFκB-Luciferase and 20 ng of TK-Renilla reporter genes, as in FIG. 11. A467 (SEQ ID NO. 23) and A464 (SEQ ID NO. 20) were added to the cells at a concentration of 1, 5 or 25 μM the next day and cells were stimulated with 2.5 μg/ml CL075 1 hour after treatment with the peptide. Cells were harvested and assayed for NFκB activation by reporter gene assay 6 hr after stimulation with the agonist. No peptides were added to the control wells (black bars). Data is representative of at least three experiments each performed in triplicate. Data are expressed as mean fold induction±s.d. relative to control levels;
HEK293 cells were transfected using GeneJuice® a proprietary non-toxic transfection reagent. 200 μl/well cells at a density of 1×10^5 cells/ml were seeded the day before transfection. 0.8 μl of GeneJuice was mixed with 9.2 μl of serum-free DMEM (SFM) per transfection and incubated for 5 min at room temperature before adding the appropriate amount of the plasmid DNA. The GeneJuice/SFM/DNA mixture was then incubated at room temperature for 15 min before adding to the cells. […] Luciferase activity was analysed using a luminometer. […]

KYSFKLILAEYRRRRRRRRR [Peptide A464]
inhibition of TLR8-dependent NFκB activation: neither A467 (SEQ ID No. 23) nor A464 (SEQ ID No. 20) had any inhibitory effect
